From patent US20040072240A1 come the findings set out here.

The test has as its target HLA A2.1 molecule (human). The experiment in a line: T2 cells, flow cytometry; P1Y variant against its natural peptide.

Consider P1Y variant of gp100 209 (peptide), for which the DC50 Y1-DC50 WT stood at 2 h and the RA WT/RA Y1 stood at 1.7.
